According to patent US20240026407A1, “MODIFICATION OF SAPONINS” (GLAXOSMITHKLINE BIOLOGICALS SA, priority 2020, published 2024):

Columns and labels:
Assay type in all cases: biochemical, Quillaja saponaria
[1] = Experiment 6-1: screening of rhamnosidases for derhamnosylation of saponins in treated bark extract (2%), QS-17 2296 to QS-18 2150 (PAR %); conditions: TBE 2%, pH 7.5, 30 degC, 18 h; TIC peak area ratio percent of rhamnosylated starting saponin to derhamnosylated product, LCMS/MS; negative controls 4.876, 5.225
[2] = Experiment 6-1: screening of rhamnosidases for derhamnosylation of saponins in treated bark extract (2%), desglucosyl-QS-17 2134 to QS-21 1988 (PAR %); conditions: TBE 2%, pH 7.5, 30 degC, 18 h; TIC peak area ratio percent, LCMS/MS; negative controls 2.719, 2.158
[3] = Experiment 6-1: screening of rhamnosidases for derhamnosylation of saponins in treated bark extract (2%), QS-17 2310 to QS-18 2164 (PAR %); conditions: TBE 2%, pH 7.5, 30 degC, 18 h; TIC peak area ratio percent, LCMS/MS; negative controls 3.061, 2.429
[4] = Experiment 6-1: specificity of rhamnosidases towards other rhamnose residues (C3 saccharide rhamnose, C28 saccharide rhamnose); conditions: TBE 2%, pH 7.5, 30 degC, 18 h; LCMS/MS; negative controls 0.18, 0.17

B1: 1049 (protein, listed as Chitinophaga pinensis)
chain: MKQCMGIWLLFLSLQTWGQQLQVVHLRTDNKTNPLGCQLSPRLSWQLSASYNNCVQQAYQLQFSDDSTTLNSKKHTGKHVESADPFLTLPAAFAGITLLPAHTYYWRVQVWDKAGRPSGWSEVASFINALNGPADWKGAKWIGYEDVVDSMRVVPGVHNGTDKFYQKHKARQRTIVPLFRKAFSVQGKVKSALLYISGLGQYEASLNGVRLGDNFLAPGWTHYDETALYNTYDLTNVLQAGENALGVIVGNGFFNVNKERYRKLSVVYGMPRMICRLLITYENGKTTNIVSGTDWRTSASPITFTSIYGGEDYDAGKEQSGWDQPGFNDTEWKPAIVVKATEKRLLPEEDYPVKVMEVLPVRRITQPQPAVYMYDFGQNASGIIGLKIKGKKGQTVKLIPAELTNDKQLANQKATGSPYYFSYTLKGDGIETWQPRFSYYGFRYVQVEGAAPDTAVHTGDVPEIISLELLHTRNAAPVNGTFSCSNDLFNRIHTLILWAIKSNMQSVLTDCPHREKLSWLEQDYLMGNAIQYSYDIDLLYRKLIRDMKEAQTGEGLVPDIAPEFVFFDDHGFGFRDSPEWGSAGVIVPWLHYRWYGDKTVISDAYPMVKKYVAYLGAKAQHNILSYGLGDWFDNGPQRPGVAQLTPKGVTATAIYYYDLVLAGNMADLLGKTAEAKAFRVQADKVKATFNGEYFHTGTKVYSTGSQTAMAMPLCVGLVEEQYRQAVFSNMVDSIRQQRNQLTAGDIGFHFLVQALQEGGASDLLYEMNNRSDVPGYGFQLAKGATTLTESWAALEQVSNNHLMLGHLLEWFYTGLGGITQQAGSIGYKQLQICPEVVGDITWVKTSYNTPYGTVRSEWEKKDGGMLFRISIPPNSNAIVKLPAKREGRITADGKPLNNQDLSFEKERVVMYLGSGDYEFSTFK
QS-17 (PAR %) [1]: 5.211%
Peak75 (PAR %) [2]: 2.417%
Peak57 (PAR %) [3]: 2.271%
ratio PP/QS-21 [4]: 0.18

B2: 1022 (protein)
chain: MRKSRSLGLGLVKYILIVVALVGCIQTSPTMDESAINHQAQTIYLRGGFNGWSTATAFDRTEQAGIYVAKTKITMGNHGFKLAPADWSFAWVVSAHENQLVELNKSYRLNTAGGEEDSLFIETRGLYQFTLDITQANQPKLLVKLLSADSAKTPPPHYGEMTSLEFNRFNGEKVEAVFSAKATNNGLREYVHSTTQSLRDPVPSYSRYQEDIAHPRVRSGNIAFDALFALAVDEMKLNSVEQIKDGNYNNGQAIDCSCFETGEKWNYVWTRDLSYAAHLSLAQFDAQRVENSLLFKVSNLRASAPISPFLAGNAPYTQIIQDTGSGGSWPVSTDRMTWAFGATALLANLAEPQRSQFARKAFTALVNTIENDRLVAFDSHLGLYLGEQSFLDWREQSYASWIVDDLSSMSTAISLSTNAGHYQALVLAADLAGQLGDVPAAKKYKGWASALKNAINQHLWLEEKGLYSSLTSGHYHKVALEKFDWLGQSLAIVTGIASDEQARAILSSYPHGPMGAAVIFPQQPNIPVYHNRAIWPFVTAYGLNAAVKGKNVAVTQAALDTLTRAAALNLSNMENLEWLSSEPILLDKTHPQLSGPVINSKRQLWSVAAYLNLVSNTIFGAQPSQQGIEFRPFIPKSFKDQWFKHSQVINLINYQWRGKQFDLQLKFAPSNKKFGAYVVNRVKVNGLAHSGVLVEQALKQHNLIEIELVLDNTVDNNINLVDSEPLAFDPLVYAPLEPKLSVVAKANDYVIQIEDKGNANLTSAAIEYEIYRDGNLLTRVPAGAGVSQWLDKGQAQQAHCYAVAARFVKSQNQSHLSEVVCMGERMQIPVADQRIQSNKPKKILGEQLIFSQWGEADDTLQVHFSIDQPGKYAIQFNYHNPANAINLGISNGVKWLEVVNSSNQQSVKQAAVQFPHTRVDKTQFGDNLSTPVEIELAAGDYKLHLHDFYNMSYLQSNKTYTAAGGMKGISNKFDIYAVTFVLLPLK
modifications: Catenovulum agarivorans
QS-17 (PAR %) [1]: 5.190%
Peak75 (PAR %) [2]: 2.368%
Peak57 (PAR %) [3]: 2.882%
ratio PP/QS-21 [4]: 0.15

B3: 1070 (protein, listed as Thermobaculum terrenum)
chain: MRKIIAQDPFTRNDPGIPWDQRGQWPASWVAARRLPSPPYVVAYRLAFVLPQAATATLHVTADERYELFLDSERVGRGSERGDADHWFYETYELELPAGPHTLVARVWSLGPLAPYAQLSVRHGFLLAAEPPLTEALSTGIAPWEAKRLEGYSWVNPSPAWGTGGNIALSAAQFPWGVERGEGDGWEPVEVVERAVGRLMALEAPPQHLLRPATLPAMLEVPIRVGRVRHVSAPSSEEVSSLPIRAEQALDEPEWQAMLEGRSSVTVPPHTTRRVIIDLEDYYCAYPELVTSGGEGGAVRLHWAESLYEDGRGRHKGDRDAIEGKYFRGVGDVFLPDGGDSRRFDTLWWQAGRYLELLVRTADSPLTVASLRLRETRYPLEMESAIATGDPDLDATIPLMVRAMQMCSHETYMDCPYYEQLMYAGDTRLEALVTYVMTRDDRLPRKALRMFDASRLASGLTQARYPSRVRQIIAPFALWWVAMVCDYAYWRPGTEYVRELMPGVRATMEAFERWRGSDGLLESPEGWNVTDWVPEWPAGIPPEGEWGRSGLLNWHLALVTRMVADLERALGNPQMAEHFGARAREIADAALRAFWVPSRGLMADDTACQRFSEHTQCLAILSGLLPPAIEEQVGRSLLEARDIARTTIYFSHYLFEACRKLGRVDVLLARLGLWRELVDKGLRTTIEAPEPTRSDCHAWGAHPLYHLFATFLGIRPAGLGFSAVEIAPQPAALRRLEGRLVHPRGDVWVAMEVDEEQIRARVRLPEAVPGVFCWGSRRVPLRPGEETDVVLPRAQG
QS-17 (PAR %) [1]: 5.168%
Peak75 (PAR %) [2]: 2.275%
Peak57 (PAR %) [3]: 3.311%
ratio PP/QS-21 [4]: 0.18

B4: 1031 (protein, listed as Pedobacter heparinus)
chain: MTNFSCIAKRITSFLMLFLSCSPFITAQVKSGTIVYPRGSFDADWISCPDVNLKSYGVFHMRKVFELTSRPKQFVVHVSGDQRYRLFANGTPVCFGPARGDLRNWNYETIDIAPYLKTGKNVLAVQLWNMGSGAPAAQLTYQTGFILQGNSNAEQMVNTNNSWRIIQNKGYFPEPFPPSRLASYIVGSCDSVVFKNYPFGWQNINYDDKSWLSPVSETKPRYYTEKRSLIPRSIPMMEEKIEPITGIVRILGTDTSAILNSFNKNGSITIPANTKATILFDRKTLTTAYPEITFSKGSNGKVKITYAESLFNSENLKGNRNEIKNKTIKGYYDVFLPDGGTAHTFRPLWTRTFRYIQFDITTGSEPMVIDKMQSVFTAYPFKEHAFFTSNDSTLHEIWDVSWRTARLCANETYMDCPYYEQLQYVGDTRIQALISLYVSGDDRLMRNAIEQFHQSQIPDGLTMDAYPAGGGKFIPPFSLFWIAMLHDFYWYRDDEKFIEKYLIPMEAILKWFEYRLDNNSGMLGKTGYWNFVDWSFSPKGIPSGGLEGNSSILSLQYVYALEQAAEIFAHAKQQQKADYYHNLGQKIKRAVYARCYDINNRLLADSPERKAFSQHANIWSIITDCIPFKDQEATMERIMNDSTLTATSLYYRFYYTKAMKKAGLGSLYLSSLRPWKQMLDLGFSTFPETLAPNVRSDCHAWSASPCYDFLATVCGIEPGTPGFATVRISPNLGNLKAVSGELPHPLGPIKVSYKKIKEGSYSAHIELPANLNGIFISKDQKVILTGGKQEITFKYE
QS-17 (PAR %) [1]: 5.218%
Peak75 (PAR %) [2]: 2.367%
Peak57 (PAR %) [3]: 3.096%
ratio PP/QS-21 [4]: 0.17

B5: 994 (protein, listed as Catenulispora acidiphila)
chain: MLIRRRFATALALILAFAAVTPVASAAPSPSLSLSASSAGTEVSVSALQTDATTNPLGIDDPHPSLSWKLASQINGEYQSAYRIVVAGSQSDASAGVGSVWDSGEVASGNSVGIAYGGPALASEKTYYWAVQIWDEHGTASGWSAPAQWEMGLLNPGDWQGAQWISPTSASAASPLLRKDFTLAKPVARARAYVFGLGFYELHLNGGKVGDRVLEPASTPYAQRDLYAAYDVTGTVKQGGNAVGLWLGNGYDANFSQYGFRWLGPKQAIVLIDVTFSDGTHQAVTSDGSWTWSPSPITADGIYNGESYDARMVQPGWDAAGFSASSLQPVRTVAAPGGSLVADAMPPIRVTQTLNAVKLTSPSPGVYVYDFGQNVSGWEVLRTQGAAGSTVKMQTAEDLLANGTIDTTTNRNALSTDSYTLAGTGSTETYEPRFTYHGFRYVEVTGDPQTPVVSSLQARVVHADLASTSTFSSSDATLNQIWQNNQRTMLNNQMSTPTDNPVRDERTPPGMDVQAYHDASTAEFGMDTYYANYLRDMPPGTALPSDGGNAQQPDMGGDQVTLAWTLYQQYGDIATLAAMYPLMKKFVDTNATNVPGHIWSTGFGDWCPPDHSSNANGGMGNPSAGACTSEVPIVNTALSYLQASDVAKAATALGQAGDAAHYTQLAGDIANAFNAAFLNSDHASYGDGRETTSILPLAFGMVPAADVPAVGARLVDTVVRGNGGHLDTGIFGTRYLMDALAGIGRTDLAMTVLDQGTYPGYGFEIGKGATTDWEEWTYASSMESHDHAMFAGINASFASRLAGIEPTGPGYSTVSIAPQIPAGLQSVAASVSTVRGTVASSWSVSGGKVTMDVTVPVGATASVRVPSFGQGSVTTVSPAGAGAVQVSAGGTSSTYTVGSGSWEFTGSLVPASSTVLPGTWTQCAVETGNCSVAGTETVAFGAQGKYDYATVSGTVACSNTVFGDPDSGVSKACYAEPAPATTPGAWQQCAAETATCSFAGTETVAFGAQGKYTYATLTGGTPCTTTIFGDPAYGIPKSCFIEAPPPAATTWIPCAAETATCTLTASRDVAFGAHGDYAYRTANAPTTCTNAVFGDPAPGAVKACYLQ
QS-17 (PAR %) [1]: 5.177%
Peak75 (PAR %) [2]: 2.147%
Peak57 (PAR %) [3]: 3.300%
ratio PP/QS-21 [4]: 0.16
